# Laboratory results from patent US20130323234A1 (Pfizer, published 2013).
# B1: 2.12.1.fx antibody (antibody, human IgG2, kappa, V domains shown)
# VH: QVQLVESGGGLVKPGGSLRLSCAASGFTFSDYYMSWIRQAPGKGLEWVSYISSSGSTRDYADSVKGRFTISRDNAKNSLYLQMNSLRAEDTAVYYCVRDGVETTFYYYYYGMDVWGQGTTVTVSS
# VL: DIQMTQSPSSLSASVGDRVTITCRASQDIRRDLGWYQQKPGKAPKRLIYAASRLQSGVPSRFSGSGSGTEFTLTISSLQPEDFATYYCLQHNNYPRTFGQGTKLVIKR
# Assays:
# IGF1R = IGF1R (UniProt P08069 31-932, limits assumed); test: cell-based or functional assay
# [1] = biological target: IGF1R on the human colon carcinoma cell line Colo205 (human, UniProt P08069 31-1367); test: cell-based or functional assay
binder,measurement,setting,value
B1,% IGF1R downregulated,IGF1R,36%
same,% IGF1R downregulated,[1],48%
